Measurements published in the DeepSol protein solubility set.

experiment: soluble on expression in E. coli; label from the status in PepcDB or PDB records

Sequence	soluble on expression in E. coli
MAHHHHHHMGTLEAQTQGPGSMTAQSGLLQGKRGLILGVANNRSIAWGIAKAAREAGAELAFTYQGDALKKRVEPLAEELGAFVAGHCDVADAASIDAVFETLEKKWGKLDFLVHAIGFSDKDELTGRYIDTSEANFTNTMLISVYSLTAVSRRAEKLMADGGSILTLTYYGAEKVMPNYNVMGVAKAALEASVKYLAVDLGPQNIRVNAISAGPIKTLAASGIGDFRYILKWNEYNAPLRRTVTIDEVGDVGLYFLSDLSRSVTGEVHHADSGYHVIGMKAVDAPDISVVKD	soluble
MAHHHHHHMGYLLEREQQRYSRHESAESATAFFASRGQTIDILGRTDPNQIKGNFFGLELYQDAMKVVMQRYTPEKRLTSADLWQPNALGDAPPPRHTLHRKLDDFLYLIVQEGATGKWTIPHTARKDDESLRMTADRAISSQNSEGLDCYVWSNAPQATVFLKDDNTRLFIYAATYLAGRPQFASFEPKPKDHAWVTRHELLQYSDTFKSAELLKALLDISADGTFEA	not soluble
MAHHHHHHMIGLKSMAGVRDVVRGGSWPARLLDMFTSRAAQESFEFEAVVTDACAAANVPVPSEADLPHARWWKKLCRACQDKAGTTKHGSQLLRSRLTNALTQRLAVEEVYRLNGGEIAKEPAVENPIVIMGLPRSNGHMAAHVLARSGLFLTPRQCDTLSPSLLLDVERRDAFRKKFRGFSYLHPDFLCVRVPQADQVDDDLTLHLMTPQSYAWGLLHGLDEYLLECLEEDQLPVYSEVRRVMELLQWYRKCGHFSEPVTREFNPIDNAMELQAYGTKNVLLRPQWLLYSPFAILSPDAVNTAFPKMKAIWVHRALSQCLPSLCSALCLHNTLYTGKPPSDSQLASMGEKVLGIFGSGTAYAIEYYGKFDQRRMAHWSNRDVKRHATRVATKTLDYFSVELDRYRRMQMISGQTEYVSVSRPLHDAQMPYFCLHDGIIGDVFQDYIYQFAEFAFEKKFGITVKEYTPLAAPADAMAMRGIAHGSSEPRSAPALGAGQPMVGHFQQERRGFR	not soluble
MAHHHHHHMKCVVCDADKAGYRCRACRSAYCSSQCYRKHRMSREEAAAQVANINAATSSFAHLCETVVAAQRPQKELDEKRQRTEAEADVFSDVSREKVAAAGAVHGSENDAPPPSTAPAVETAWKTATGASEASGPACAEPQPSARTEYAGDSDAVYILQEKHLGALAHDPRVRSALRSPSLQKLIKTIDSSRSRLDALEAAQYNNADFKGFCDAVLRVIAEVEGR	soluble
MAHHHHHHMKDIINSDFEDNKDERVIIVDENNEFQELKARKIMRMENLWHRSTSIFVFTKIGEEYFIYVHKRSKVKDYCPSYYSIGFGGVVSENEDMLGNAVKELEEESGIKKSPEQLFDLGVVKCDTECSRSFVGSYVSLTLGKPMPFDGVRPLRIFACSSGNFTLLLIPHAAFFRAVTPSPTGCLHRPRLPDHPPAE	soluble
MAHHHHHHMKGNKGANIAYPDKYHKVTEFFDREYGDLETCTKLNDCQKLLFYALRQQVEHGPCTSGAPFIWQVRERAKHDAWKQLGAMTKFEAMVHFVTHLEECIGGNVDWGEKLRDLNGMRDQQRVGVENGTGESNANEQTERGVSEAHWDADVQAHLQPSAENIEYLAREVMRLRGELQQVRPNRVVPTPIVVPPRKPIDYVSTKNIVPPARTLATVATRTALLNAQTTNNLVERQPQGWGEWFGLI	soluble
MAHHHHHHMKGTLAGYTRGLHGQTKQTALVRVENVNTREDATWYVGKRVCYVYHGKKVKRCVRWSKAPARRSTTRALWGRVTRPHGNAGMMRVKFNGASVPASAIGRRIRVYLYPSQI	soluble
MAHHHHHHMKNALFVNENMTILKIFYKDKLYMIKNKICGYQHDINENLVNNPHLLFLGRQEAWILILKCKEEAILQNCITATRYEEIRESEIERHDCVLGSLRK	not soluble
MAHHHHHHMKPVYRYAMNHEYNINSICPIAYSDQFATADDATVLLWCTEYPDTSIETHDMRSPYEDGPRETICAVRNFPHEPFLFFVATSGGSVRVVDTRQTLRWGDQAAQAFINPPREEDEPFSNVTNSICDCALSPSGRYIAGRDFMSICLWDIRMAGSGGARNAPATPRRQAPAARGGDGNPECSMVRRWALHPHLRDDLDTIYQSNLLFDKFDVQFLSSRQVCTGGFNNTLYTMDVEGTSADAASDIRTFQLLKTEGISEFRRTTVSAHRRGEDRISTGQGLGSRMTLMSRPYMSMSGACGMMVACGQAVLQLSYNGLSK	not soluble
